Reference: paper PMC6107663, “Crystal structure of human Mediator subunit MED23” (Nature Communications, 2018)

What was measured:
[1] = target: T1, human MED23 isoform 1, C-terminal 6xHis-tagged (MED23-6His) (human, UniProt Q9ULK4-1); test: crystal structure; purified MED23 mixed with Nb106 in a 1:1.2 ratio, 1 h at 4 °C; hanging drop vapor diffusion at 20 °C, 10% PEG6000, 100 mM HEPES pH 7.0; one complex in the asymmetric unit; details: both partners purified
T1 construct: Mediator subunit MED23, human, isoform 1 (NM_004830.3); A rhinovirus 3C protease site stands between MED23 and the 6xHis tag; no cleavage is described; The DNA encoding isoform 1 was amplified by PCR; the words 'full length' are not used, but the model is called complete except for the last 30 residues; also called recombinant human MED23; source: SF21 cells, baculovirus (Bac-to-Bac), purified …

[2] = target: T2, MED23, endogenous, incorporated within the Mediator complex (human (endogenous in HEK-293), UniProt Q9ULK4); test: co-IP; HEK-293 lysate (50 mM Tris/HCl pH 8, 250 mM NaCl, 0.1% Igepal CA-630) incubated with 2 µg of Nb106 overnight at 4 °C; fished with CaptureSelect C-tag Affinity Matrix; western blot; details: one partner purified
T2 construct: Mediator subunit MED23, human, endogenous; source: endogenous, HEK-293 lysate
T2 sequence (Q9ULK4 whole entry, one chain of several): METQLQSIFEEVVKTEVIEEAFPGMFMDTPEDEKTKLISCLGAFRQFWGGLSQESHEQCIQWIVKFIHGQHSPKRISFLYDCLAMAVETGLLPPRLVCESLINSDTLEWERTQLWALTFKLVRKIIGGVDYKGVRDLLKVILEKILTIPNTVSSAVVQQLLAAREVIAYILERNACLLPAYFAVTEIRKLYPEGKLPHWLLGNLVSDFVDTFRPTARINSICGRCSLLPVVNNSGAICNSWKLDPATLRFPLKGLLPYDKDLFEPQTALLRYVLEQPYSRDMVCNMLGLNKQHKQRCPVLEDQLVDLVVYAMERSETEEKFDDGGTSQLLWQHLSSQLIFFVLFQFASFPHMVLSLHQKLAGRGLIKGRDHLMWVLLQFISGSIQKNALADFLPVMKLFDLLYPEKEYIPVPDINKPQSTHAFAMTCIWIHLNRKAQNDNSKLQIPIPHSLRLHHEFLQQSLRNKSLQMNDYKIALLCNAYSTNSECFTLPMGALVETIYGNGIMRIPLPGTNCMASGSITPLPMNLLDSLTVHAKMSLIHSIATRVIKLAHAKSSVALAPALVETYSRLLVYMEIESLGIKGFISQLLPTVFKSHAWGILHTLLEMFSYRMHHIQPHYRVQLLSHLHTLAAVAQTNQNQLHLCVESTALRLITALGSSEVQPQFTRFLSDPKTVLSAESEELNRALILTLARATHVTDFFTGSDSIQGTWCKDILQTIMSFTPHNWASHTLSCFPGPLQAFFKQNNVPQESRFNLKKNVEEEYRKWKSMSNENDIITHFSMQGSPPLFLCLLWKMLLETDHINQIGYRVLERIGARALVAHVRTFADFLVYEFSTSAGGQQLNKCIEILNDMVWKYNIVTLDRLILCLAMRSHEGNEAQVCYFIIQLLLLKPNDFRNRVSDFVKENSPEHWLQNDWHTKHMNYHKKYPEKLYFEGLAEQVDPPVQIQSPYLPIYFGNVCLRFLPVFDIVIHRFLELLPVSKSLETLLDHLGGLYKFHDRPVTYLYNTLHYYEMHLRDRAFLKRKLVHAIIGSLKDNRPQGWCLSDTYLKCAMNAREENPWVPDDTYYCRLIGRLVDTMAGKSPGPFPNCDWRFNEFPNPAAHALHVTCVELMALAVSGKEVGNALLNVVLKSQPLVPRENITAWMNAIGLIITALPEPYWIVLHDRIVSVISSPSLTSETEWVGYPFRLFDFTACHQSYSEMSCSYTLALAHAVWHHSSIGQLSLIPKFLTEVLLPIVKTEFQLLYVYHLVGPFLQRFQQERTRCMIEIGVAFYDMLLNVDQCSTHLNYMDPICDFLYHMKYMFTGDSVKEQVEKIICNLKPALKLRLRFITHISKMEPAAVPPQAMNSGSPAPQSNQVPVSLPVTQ

T1 sequence (Q9ULK4 whole entry, the tested form may be a part, canonical isoform): as the sequence (Q9ULK4 whole entry, one chain of several) above

- binding result [1]: binds
- binding result [2]: binds
B1: nanobody Nb106 (VHH)
VHH: QVQLVESGGGLVQAGASLRLSCAVSGRTGSIYTMGWFRQAPGKEREVVARTTWTPGSTKYADSVKGRVAISRDIAKNTLYLQMNNLKPEDTAVYYCAACAYGTCYYGDRAYEYWGQGTQVTVSS
notes: A related nanobody (PDB 5IMK) was used to fit the density; it is not Nb106; also called lama nanobody; source: E. coli WK6, periplasmic extract, purified (Ni-NTA, Superdex 75)
